Source: patent US20220193132A1 (NATIONAL RESEARCH COUNCIL OF CANADA, published 2022)

T1: EGFRvIII fragment amino acid residues 1 to 18, displayed on yeast (human)
T1 construct: also called aa 1-18
T1 peptide: LEEKKGNYVVTDHGSCVR

T2: EGFRvIII fragment amino acid residues 3 to 18, displayed on yeast (human)
T2 construct: also called aa 3-18
T2 peptide: EKKGNYVVTDHGSCVR

B1: F266-11C8 (antibody, V domains shown)
VH: QIQLVQSGPELKKPGETVKISCKASGYTFTTAGMQWVQKMPGKGFKWIGWINTHSGDPKYAEDFKGRFAFSLETYASTAYLQISNLKNEDTASYFCARTHIYDGYNYAMDYWGQGTSVTVSS
VL: DVVMTQTPLSLPVSLGDQASISCRSSQSLVYSNGNTYLHWYLQKPGQSPKLLIYKVSNRFSGVPDRFSGSGSGTDFTLKISRVEAEDLGVYFCSQSTHVPFTFGSGTKLEIK
notes: Mouse hybridoma mAb; also called 11H5 (11C8)
B2: F266-11B1 (antibody, V domains shown)
VH: QIQLVQSGPELKKPGETVKISCKASGYTFTTAGMQWVKKMPGKGFKWIGWINTHSGDPKYAEDFKGRFAFSLETYASTAYLQISNLKNEDTASYFCARTHIYDGYNYAMDYWGQGTSVTVSS
VL: DVVMTQTPLSLPVSLGDQASISCRSSQSLVYSNGNTYLHWYLQKPGQSPKLLIYKVSNRFSGVPDRFSGSGSGTDFTLKISRVEAEDLGVYFCSQSTHVPFTFGSGTKLEIK
notes: Mouse hybridoma mAb
B3: F266-11H3 (antibody, V domains shown)
VH: QIQLVQSGPELKKPGETVKISCKASGYTFTTAGMQWVQKMPGKGFKWIGWINTHSGDPKYAEDFKGRFAFSLETYASTAYLQISNLKNEDTATYFCARTHIYDGYNYAMDYWGQGTSVTVSS
VL: DVVMTQTPLSLPVSLGDQASISCRSSQSLVYSNGNTYLHWYLQKPGQSPKLLIYKVSNRFSGVPDRFSGSGSGTDFTLKISRVEAEDLGVYFCSQSTHVPFTFGSGTKLEIK
notes: Mouse hybridoma mAb
B4: hFc-13.1.2-MMAE (antibody, human IgG1, kappa, V domains shown)
VH: QVQLVESGGGVVQPGRSLRLSCAASGFTFSSYGMHWVRQAPGKGLEWVAVIWYDGSNKYYVDSVKGRFTISRDNSKNTLYLQMNSLRAEDTAVYYCARDGWQQLAPFDYWGQGTLVTVSS
VL: not shown
modifications: MC-vc-PAB-MMAE on reduced interchain cysteines
B5: hFc-13.1.2 (antibody, human IgG1, kappa, V domains shown)
VH: QVQLVESGGGVVQPGRSLRLSCAASGFTFSSYGMHWVRQAPGKGLEWVAVIWYDGSNKYYVDSVKGRFTISRDNSKNTLYLQMNSLRAEDTAVYYCARDGWQQLAPFDYWGQGTLVTVSS
VL: not shown
B6: hFc-4E11-MMAE (antibody, human IgG1, kappa, V domains shown)
VH: DVQLQESGPGLVKPSQSLSLTCTVTGYSITSDYAWNWIRQFPGNKLEWMGYIGYNGRTSYNPSLKSRISITRDTSKNQFFLQLNYVTTEDTATFYCARLGRGFAYWGQGTLVTVSA
VL: DILMTQSPSSMSVSLGDTVSITCHASQGINSNIGWLLQKPGKSFKGLIYHGTNLEDGVPSRFSGSGSGTDYSLTISSLESEDFADYYCVQYAQFPYTFGGGTKLEIKR
modifications: MC-vc-PAB-MMAE on reduced interchain cysteines
B7: F260-5G6 (antibody, V domains shown)
VH: EVQLQQSGAELARPGASVKMSCKASGYTFTSYWMHWVKQRPGQGLEWIGAIYPGNSDISYNQKFKGKAKLTAVTSATTAYMELSSLTNEDSAVYYCTLYDYDPDYWGQGTTLTVSS
VL: not shown
notes: Mouse hybridoma mAb
B8: hFc-5G6-MMAE (antibody, human IgG1, kappa, V domains shown)
VH: EVQLQQSGAELARPGASVKMSCKASGYTFTSYWMHWVKQRPGQGLEWIGAIYPGNSDISYNQKFKGKAKLTAVTSATTAYMELSSLTNEDSAVYYCTLYDYDPDYWGQGTTLTVSS
VL: not shown
modifications: MC-vc-PAB-MMAE on reduced interchain cysteines
B9: hFc-5G6 (antibody, human IgG1, kappa, V domains shown)
VH: EVQLQQSGAELARPGASVKMSCKASGYTFTSYWMHWVKQRPGQGLEWIGAIYPGNSDISYNQKFKGKAKLTAVTSATTAYMELSSLTNEDSAVYYCTLYDYDPDYWGQGTTLTVSS
VL: not shown
notes: Chimeric antibody, mouse variable regions on human IgG1 / human kappa, produced in CHO cells; also called chimeric 5G6
B10: F263-1A8 (antibody, V domains shown)
VH: EVQLQQSGAELVRPGALVKLSCKASGFNIKDYYMHWVKQRPEQGLEWIGWIDPENGNTIYDPKFQGKATITADTSSNTAYLQLSSLASEDTAVYYCARGWLLLWGQGTTLTVSS
VL: not shown
notes: Mouse hybridoma mAb

Key:
[1] = target: T3, EGFRvIII, full length, overexpressed on glioblastoma cells (human, UniProt P00533 298-623); assay: flow cytometry dose-response on U87MG-EGFRvIII cells, apparent Kd
T3 construct: Cells overexpress full length EGFRvIII (deletion of exons 2-7 of EGFR); Cell line (U87MG or DKMG) is named under assay; also called U87MG-EGFRvIII; U87vIII
Procedure: (§1) Prior to analysis, cells were plated such that they were not more than 80% confluent on the day of analysis. Unless otherwise stated, all media are kept are 4° C. and all incubations are performed on wet ice. Cells were washed in PBS, harvested by the addition of cell dissociation buffer (Sigma), centrifuged and resuspended in complete medium at a cell density of 2×10⁶ cells/mL. Fifty μL/well of cells were distributed in a polypropylene v-bottom 96 well plate and serial 1/3 dilutions of purified mAbs starting at 100 nM were added and incubated for 2 hours. […] Cells were washed and re-suspended in medium containing Propidium iodide to exclude dead cells from analysis. Samples were filtered through a 60 μm nylon mesh filter plate (Millipore, Ireland) to remove cell aggregates. Flow cytometry analyses were performed on 2,000 viable single-cells events gated on forward scattering, side scattering parameters and propidium iodide dye exclusion using a BD-LSRFortessa flow cytometer (Becton-Dickinson Biosciences, CA, USA) and a standard filter set using BD FACSDiva™ acquisition software, according to manufacturer's instructions.
(§2) Specific detection of antibody binding was calculated as the mean fluorescent intensity of binding to each primary antibody after background level subtraction of the mean fluorescent intensity of binding of mouse IgG control. The data were analyzed with GraphPad Prism v 6.0 software using one-site specific binding with Hill slope non-linear regression curve fit model to determine Bmax (maximum specific binding) and Kdₐₚₚ (concentration needed to achieve a half-maximum binding at equilibrium) for each mAb tested.

[2] = target: T3, EGFRvIII, full length, overexpressed on …; assay: cell-based or functional assay
[3] = target: T4, wild type human EGFR, full length, overexpressed on U87MG cells (human, UniProt P00533 25-1210); assay: cell-based or functional assay
[4] = target: T3, EGFRvIII, full length, overexpressed on …; assay: cell-based or functional assay; remark: listed apart in the source
[5] = target: T4, wild type human EGFR, full length, …; assay: cell-based or functional assay; remark: listed apart in the source
[6] = target: T5, recombinant human wild type EGFR protein (extracellular domain), native (human, UniProt P00533 25-645); assay: ELISA Exp 1, mAb supernatant
T5 construct: also called wt EGFR; EGFR WT

[7] = target: T6, recombinant human EGFRvIII protein (extracellular domain), native (human, UniProt P00533 298-623); assay: ELISA Exp 1, mAb supernatant
T6 construct: also called hEGFRvIII

[8] = target: T7, recombinant human EGFRvIII protein (extracellular domain), denatured (human, UniProt P00533 298-623); assay: ELISA Exp 1, mAb supernatant
T7 construct: Same protein as m21 after 95 C for 5 min in PBS with 40 mM DTT (denatured, reduced); also called EGFRvIII Denatured

[9] = target: T8, recombinant human wild type EGFR protein (extracellular domain), denatured (human, UniProt P00533 25-645); assay: ELISA Exp 1, mAb supernatant
T8 construct: Same protein as m23 after 95 C for 5 min in PBS with 40 mM DTT (denatured, reduced); also called wt EGFR Denatured

[10] = target: T5, recombinant human wild type EGFR …; assay: ELISA Exp 2, purified mAb 1 ug/ml;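 note: ELISA of purified mAb binding to plate-coated antigen, native or heat/DTT-denatured, with pNPP substrate developed for 30 min and incubations at room temperature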
Procedure: (§3) Pre- and post-immune sera titers of animals were assessed by ELISA on recombinant EGFRvIII protein. Unless otherwise stated, all incubations were performed at room temperature. […] Microplates were washed three times in PBS and blocked for 30 min with PBS containing 1% bovine serum albumin (BSA, Sigma Cat #A7030). Blocking buffer was removed and 25 μl of serial dilutions of sera samples were added. […] After a 1-h incubation, microplates were washed 4 times and 25 μl of p-nitrophenyl phosphate (pNPP) substrate (Sigma-Aldrich Canada Co., Oakville, ON) at 1 mg/ml in carbonate buffer at pH 9.6 was added and further incubated for 30 min.
(§4) Antigens at 1-2 mg/ml were incubated at 95° C. for 5 min in PBS containing DTT at a final concentration of 40 mM. They were then incubated on ice for 5 min and diluted at their final coating concentration for ELISA purpose.
(§5) ELISA was performed as described above (serum titer determination) using 25 μl of mAb supernatant (Exp 1) or purified mAb at 1 μg/ml (Exp 2).

[11] = target: T6, recombinant human EGFRvIII protein …; assay: ELISA Exp 2, purified mAb 1 ug/ml;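 note: ELISA of purified mAb binding to plate-coated antigen, native or heat/DTT-denatured, with pNPP substrate developed for 30 min and incubations at room temperature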
Procedure: as §3, §4, §5

[12] = target: T7, recombinant human EGFRvIII protein …; assay: ELISA Exp 2, purified mAb 1 ug/ml;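 note: ELISA of purified mAb binding to plate-coated antigen, native or heat/DTT-denatured, with pNPP substrate developed for 30 min and incubations at room temperature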
Procedure: as §3, §4, §5

[13] = target: T8, recombinant human wild type EGFR …; assay: ELISA Exp 2, purified mAb 1 ug/ml;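 note: ELISA of purified mAb binding to plate-coated antigen, native or heat/DTT-denatured, with pNPP substrate developed for 30 min and incubations at room temperature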
Procedure: as §3, §4, §5

[14] = target: T1, EGFRvIII fragment amino acid residues 1 …; assay: yeast surface display, flow cytometry
Source text: (§6) Assessment of the binding of anti-EGFRvIII mAbs to the fusion proteins expressed on yeast cell surface was done by flow cytometry analysis. Briefly, yeast cells were labeled with both the anti-hEGFRvIII mAb and chicken anti-Myc antibody, the latter being used to monitor the level of expression of the fusion protein. Following a wash step, binding of the primary antibodies is probed by a two-color indirect fluorescence labeling using secondary antibodies specific for mouse and chicken antibodies, respectively.

[15] = target: T4, wild type human EGFR, full length, …; assay: flow cytometry dose-response, U87MG-EGFRwt cells
Procedure: as §1, §2

[16] = target: T3, EGFRvIII, full length, overexpressed on …; assay: cell-based or functional assay; remark: listed apart in the source
[17] = target: T3, EGFRvIII, full length, overexpressed on …; assay: flow cytometry dose-response on U87MG EGFRvIII cells, apparent Kd (n=2)
Procedure: as §1
(§7) These cells were grown in RPMI and 10% fetal bovine serum using standard culturing conditions.

[18] = target: T3, EGFRvIII, full length, overexpressed on …; assay: flow cytometry dose-response on DKMG EGFRvIII cells, apparent Kd (n=1)
Procedure: as §1, §7

[19] = target: T3, EGFRvIII, full length, overexpressed on …; assay: flow cytometry dose-response on DKMG EGFRvIII cells (n=1)
Procedure: as §1, §7

[20] = target: T4, wild type human EGFR, full length, …; assay: flow cytometry dose-response, U87MG EGFR wt cells
Procedure: as §1, §2

[21] = target: T2, EGFRvIII fragment amino acid residues 3 …; assay: yeast surface display, flow cytometry
Source text: as §6

| Binder | Kd [1] | % internalization (pHrodo surrogate assay, vs 225 mAb) [2] | % internalization (pHrodo surrogate assay, vs 225 mAb) [3] | % survival (DM1 secondary-conjugate ADC surrogate assay, vs mouse IgG) [4] | % survival (DM1 secondary-conjugate ADC surrogate assay, vs mouse IgG) [5] | ELISA absorbance 405 nm [6] | ELISA absorbance 405 nm [7] | ELISA absorbance 405 nm [8] | ELISA absorbance 405 nm [9] | ELISA absorbance 405 nm [10] | ELISA absorbance 405 nm [11] | ELISA absorbance 405 nm [12] | ELISA absorbance 405 nm [13] | binding result [14] | binding result [15] | IC50 of growth inhibition, U87MG EGFRvIII cells [16] | also measured |
| --- | --- | --- | --- | --- | --- | --- | --- | --- | --- | --- | --- | --- | --- | --- | --- | --- | --- |
| B1 | 3.5 nM | 136% | < 2% | 55% | > 98% | 0.011 A405 | 1.56 A405 | 2.1 A405 | 0.009 A405 | 0 A405 | 1.72 A405 | 1.71 A405 | -0.001 A405 | binds | no binding (tested: 100 nM highest concentration) | – | – |
| B2 | 2.2 nM | 131% | < 2% | 62% | > 98% | 0.034 A405 | 1.67 A405 | 2.2 A405 | 0.032 A405 | 0.002 A405 | 1.72 A405 | 1.77 A405 | 0.004 A405 | binds | no binding (tested: 100 nM highest concentration) | – | – |
| B3 | 2.5 nM | 131% | < 2% | 62% | > 98% | 0.053 A405 | 1.66 A405 | 2.1 A405 | 0.041 A405 | 0.001 A405 | 1.78 A405 | 1.79 A405 | 0 A405 | binds | no binding (tested: 100 nM highest concentration) | – | – |
| B4 | – | – | – | – | – | – | – | – | – | – | – | – | – | – | – | 1.9 nM | IC50 of growth inhibition, DKMG EGFRvIII cells [16]: 2.5 nM |
| B5 | – | – | – | – | – | – | – | – | – | – | – | – | – | binds | – | – | Kd [17]: 5.22 nM; Kd [18]: 0.947 nM; Bmax [19]: 16500; binding result [20]: no binding |
| B6 | – | – | – | – | – | – | – | – | – | – | – | – | – | – | – | 0.2 nM | – |
| B7 | 4.2 nM | 102% | < 2% | 55% | 91% | 0 A405 | 1.45 A405 | 1.94 A405 | 0.005 A405 | 0.001 A405 | 1.74 A405 | 1.74 A405 | 0 A405 | – | no binding (tested: 100 nM highest concentration) | – | binding result [21]: binds |
| B8 | – | – | – | – | – | – | – | – | – | – | – | – | – | – | – | 0.3 nM | IC50 of growth inhibition, DKMG EGFRvIII cells [16]: 0.3 nM |
| B9 | – | – | – | – | – | – | – | – | – | – | – | – | – | – | – | – | Kd [17]: 1.53 nM; Kd [18]: 0.832 nM; Bmax [19]: 16900; binding result [20]: no binding |
| B10 | 2 nM | 100% | < 2% | 65% | > 98% | 0.016 A405 | 1.67 A405 | 2.09 A405 | 0.013 A405 | 0.002 A405 | 1.79 A405 | 1.71 A405 | 0.001 A405 | – | no binding (tested: 100 nM highest concentration) | – | binding result [21]: binds |
